B1: thermophilin 1: first bacteriocin from S. thermophilus CNCM I-1351, sequence SEQ ID NO: 1, found in fraction 15 (protein)
chain: YSGKDCLKDMGGYALAGAGSGALWGAPAGGVGALPGAFVGAHVGAIAGGFACMGGMIGNKFN

These molecules were tested against standard crude extract of bacteriocin from the culture supernatant of S. thermophilus CNCM I-1351 (assay: not given). Details: not given.
Molecule “Proteinase K (MERCK 1000 144) (from UniProt P06873) (enzyme)” has an Inactivation (mm): diameter of the inhibition halo in the agar well test after incubation with the enzyme of 0 mm. With Catalase (SIGMA C-10) (enzyme) the Inactivation (mm): diameter of the inhibition halo in the agar well test after incubation with the enzyme was 14 mm. Ficin (SIGMA P-3266) (enzyme) gave an Inactivation (mm): diameter of the inhibition halo in the agar well test after incubation with the enzyme of 0 mm. Pepsin (SIGMA P-700) (enzyme) was tested, and the Inactivation (mm): diameter of the inhibition halo in the agar well test after incubation with the enzyme was 0 mm. Molecule Nagarse (SIGMA P-4789) (enzyme) has an Inactivation (mm): diameter of the inhibition halo in the agar well test after incubation with the enzyme of 0 mm. With α-amylase (SIGMA λ-0521) (enzyme) the Inactivation (mm): diameter of the inhibition halo in the agar well test after incubation with the enzyme was 14 mm. Pronase E (SIGMA P-8038) (enzyme) was tested, and the Inactivation (mm): diameter of the inhibition halo in the agar well test after incubation with the enzyme was 0 mm. With “Lipase (SIGMA L-0382) + protease inhibitors (enzyme)” the Inactivation (mm): diameter of the inhibition halo in the agar well test after incubation with the enzyme was 14 mm. Work on Trypsin (SIGMA T-8128) (enzyme) yielded an Inactivation (mm): diameter of the inhibition halo in the agar well test after incubation with the enzyme of 0 mm. α-chymotrypsin (SIGMA C-7762) (enzyme) showed an Inactivation (mm): diameter of the inhibition halo in the agar well test after incubation with the enzyme of 0 mm.

What follows are molecules tested on S. thermophilus strain Sfi3 (typical indicator) (assay: Agar well test, antibacterial activity in arbitrary units). Details: Pep RPC fractions 15 and 21.
Type: cell-based, Streptococcus thermophilus
Procedure: In order to do this, 35 ml of M 17 medium are poured into a Petri dish and 1% sucrose and 1.5% agar are added thereto.
5 ml of M 17 medium to which 1% sucrose and 0.75% agar are added are inoculated with 5 μl of a culture, prepared during the previous night, of a strain of S. thermophilus which is typically sensitive to the present bacteriocin (typical indicator), in this case the strain Sfi3 for example.
The 5 ml are poured over the 35 ml and left to dry for 15 min under a laminar flow. Holes of 5 mm in diameter are punched in the culture medium.
The test samples are poured into the holes, in an amount of 70 μl per hole. The incubation is carried out for 6 h under anaerobic conditions at 42° C. During this incubation, the typical indicator strain has grown and inhibition halos are visible.
For “thermophilin 2: second bacteriocin from S. thermophilus CNCM I-1351, sequence SEQ ID NO: 2, predominant in fraction 21 (QINWGSVVGHCIGGAIIGGAFSGGAAAGVGCLVGSGKAIINGL)”, the “antibacterial activity of purified peptide fractions” value was “antibacterial activity”. For B1, the “antibacterial activity of purified peptide fractions” value was “antibacterial activity”.
